Data: the RNAGym collection of RNA variant scans (doi:10.7554/elife.90254)

B1: OR4K15 (parent)
chain: GUUAACGGUCAUAGGCCAUGGAAACUAGGAGCACCAUUUCGCUGCCAGUGAAGAAAUGAACAAAGAAAAUCUGGGCCAGGCAGGCAUCAAAAGAAAUAGUCUUGCGCUCAACCAGAAAGUCUGUAAUCAUUUUAAGGGUA

Variants of: B1
Experiment: self-cleavage, relative activity (ratio to wild type); higher = more cleavage; in vitro, sequencing; the parent is a self-cleaving ribozyme

In order of rising self-cleavage:
1. C40A U108A  0
2. C42U U108A  0
3. C42G A111G  0
4. G44A U108C  0.01
5. U39C U108C  0.02
6. C42A G79U  0.02
7. C40A A111G  0.02
8. U43C C107U  0.02
9. U39C G104A  0.03
10. C42U C105U  0.05
11. U39C A66G  0.08
12. U39C A114U  0.1
13. U43C G79U  0.12
14. U43C A59C  0.12
15. U39C C76A  0.13
16. G44A A110G  0.14
17. U43C A110G  0.15
18. U39C C81G  0.16
19. C40G G74A  0.29
20. C40A A78G  0.32
21. U43C A82G  0.36
22. U43A U120C  0.37
23. U43C A98G  0.44
24. U43C A116U  0.46
25. U43C U120C  0.46
26. U39C C101U  0.46
27. U43C U130C  0.47
28. U43C A116G  0.53
29. C40G A94G  0.63
30. C42U A116G  0.68
31. U43C A135U  0.71
32. G41A A114G  0.75
33. U43A A90G  0.76
34. U39C C77A  0.77
35. U39G  0.79
36. G41C A86C  0.81
37. U43C U122C  0.81
38. C40U A67G  0.82
39. C40G A134G  0.82
40. G44A U97C  0.83
41. U39G A129G  0.86
42. U43C A118U  0.87
43. U43G A134G  0.89
44. C42U A126G  0.91
45. U39C U57A  0.92
46. U43A A95G  0.92
47. G44A G84U  0.93
48. U43C A69G  0.94
49. U39G U132C  0.94
50. G41A A92G  0.97
51. U43A U70C  0.98
52. C42U U127C  0.99
53. G41A A135G  0.99
54. C40A G65A  1
55. G41A U124C  1.02
56. C42G A47U  1.02
57. U39C A110U  1.06
58. G41A A52G  1.07
59. U43A U127C  1.07
60. G41A A54G  1.09
61. U43A U70G  1.12
62. U43A A47U  1.13
63. U39C G48A  1.14
64. U43C A51G  1.14
65. U43A U120G  1.16
66. U39C U97A  1.16
67. C42U A60G  1.17
68. U43C A56G  1.18
69. U39C U127C  1.18
70. U39C A86G  1.19
71. G44C C46A  1.19
72. U39C A134U  1.21
73. G44A G83A  1.24
74. U39C U124C  1.25
75. U43A A68G  1.25
76. G44A A47G  1.27
77. U43A A51U  1.28
78. U43C A66G  1.29
79. U43A A135C  1.29
80. U39C A92G  1.3
81. C40U U122A  1.3
82. C40U A126U  1.31
83. U39C U87C  1.31
84. C40U U120C  1.32
85. G44C  1.33
86. U39C A94G  1.34
87. G41U U122C  1.34
88. U43C U122A  1.34
89. U43C A89C  1.36
90. U39C A89C  1.38
91. U43C A118C  1.4
92. U43A U132A  1.41
93. U39C U49A  1.41
94. U39C A94C  1.43
95. C40A A89G  1.44
96. U43A U130C  1.44
97. G41A A126G  1.48
98. U43C A59U  1.48
99. U43A A59G  1.52
100. G44A  1.53
101. U39C A95G  1.53
102. G44A U131C  1.53
103. C40U A52G  1.54
104. G44A U102A  1.56
105. U39G A92G  1.57
106. U39C U43C  1.57
107. U43A U120A  1.57
108. G41A A51C  1.57
109. G41C U122A  1.57
110. U39C U122A  1.58
111. U39G A96U  1.58
112. G41U U130C  1.59
113. U43C U97G  1.6
114. U43A A51G  1.64
115. U39C U57C  1.64
116. C40A A69G  1.65
117. C40U A55G  1.67
118. G44A U122C  1.67
119. G44C A117G  1.69
120. U43G A66G  1.69
121. C40A A67G  1.7
122. U43A A86U  1.7
123. G41A U87A  1.71
124. U43G A54C  1.71
125. U39C A118G  1.71
126. U43A A96U  1.72
127. U39C A89G  1.73
128. U43A A90U  1.74
129. G41A A66G  1.74
130. U39G A51G  1.75
131. U39C C77U  1.75
132. G41A U132C  1.79
133. U39C U122G  1.81
134. U39C U122C  1.84
135. C40U A68G  1.84
136. U43A U132C  1.86
137. U43A A67G  1.88
138. G41A A140G  1.89
139. G41U A60G  1.9
140. G44U  1.91
141. U43A A98C  1.91
142. U43A A135G  1.91
143. U39C U43A  1.92
144. C40U U131C  1.93
145. U43C A140G  1.95
146. C40U A95G  1.96
147. C42U A54G  1.96
148. G41A U133C  1.98
149. U39C A92U  1.99
150. U43C A135G  2.01
151. G44U A66U  2.02
152. G41C U87C  2.03
153. U43A A96G  2.07
154. U43A U139G  2.1
155. U39C A86U  2.13
156. G44A U102C  2.14
157. U43C G138A  2.16
158. U43A A135U  2.21
159. G41C A95G  2.25
160. G41C A64U  2.26
161. G41U A55G  2.29
162. U43C G123A  2.35
163. U39C G136A  2.38
164. U43A U139C  2.42
165. U43C G93A  2.44
166. G41A A62G  2.53
167. C40A A117G  2.53
